Measurements as given in paper PMC10808743, “Generation of human TMEM16F-specific affibodies using purified TMEM16F” (Frontiers in Molecular Biosciences, 2023).

Target: the molecule itself
Experiment: SEC; 40 μg TMEM16F (0.4 mg/mL) incubated with 40 μg #50 affibody (0.5 mg/mL) for 2 h at 4°C, separated on Superose 6 FPLC; fractions around 14.8 mL analysed by SDS-PAGE and Western blot

B1: human TMEM16F (hTMEM16F) variant 1, SBP-tagged, purified (natural protein, UniProt Q4KMQ2-1 1-910, looked up)
chain: MKKMSRNVLLQMEEEEDDDDGDIVLENLGQTIVPDLGSLESQHDFRTPEFEEFNGKPDSLFFNDGQRRIDFVLVYEDESRKETNKKGTNEKQRRKRQAYESNLICHGLQLEATRSVLDDKLVFVKVHAPWEVLCTYAEIMHIKLPLKPNDLKNRSSAFGTLNWFTKVLSVDESIIKPEQEFFTAPFEKNRMNDFYIVDRDAFFNPATRSRIVYFILSRVKYQVINNVSKFGINRLVNSGIYKAAFPLHDCKFRRQSEDPSCPNERYLLYREWAHPRSIYKKQPLDLIRKYYGEKIGIYFAWLGYYTQMLLLAAVVGVACFLYGYLNQDNCTWSKEVCHPDIGGKIIMCPQCDRLCPFWKLNITCESSKKLCIFDSFGTLVFAVFMGVWVTLFLEFWKRRQAELEYEWDTVELQQEEQARPEYEARCTHVVINEITQEEERIPFTAWGKCIRITLCASAVFFWILLIIASVIGIIVYRLSVFIVFSAKLPKNINGTDPIQKYLTPQTATSITASIISFIIIMILNTIYEKVAIMITNFELPRTQTDYENSLTMKMFLFQFVNYYSSCFYIAFFKGKFVGYPGDPVYWLGKYRNEECDPGGCLLELTTQLTIIMGGKAIWNNIQEVLLPWIMNLIGRFHRVSGSEKITPRWEQDYHLQPMGKLGLFYEYLEMIIQFGFVTLFVASFPLAPLLALVNNILEIRVDAWKLTTQFRRLVPEKAQDIGAWQPIMQGIAILAVVTNAMIIAFTSDMIPRLVYYWSFSVPPYGDHTSYTMEGYINNTLSIFKVADFKNKSKGNPYSDLGNHTTCRYRDFRYPPGHPQEYKHNIYYWHVIAAKLAFIIVMEHVIYSVKFFISYAIPDVSKRTKSKIQREKYLTQKLLHENHLKDMTKNMGVIAERMIEAVDNNLRPKSE
notes: Human TMEM16F variant 1 (anoctamin-6), cDNA clone NM_001025356.2 bought from Genescript; called 'purified whole TMEM16F protein' in the discussion; In one BLI experiment the same protein was incorporated into nanodiscs (MSP 2N2, Addgene #29520; POPC:POPG 3:1; TMEM16F:MSP:lipid 1:5:100) under detergent-free conditions; also called purified human TMEM16F protein; TMEM16F-nanodisc complex (when …)
  stoichiometry N: 2
